We go through five molecules from patent publication US20200131249A1 (EVOLVERITAS KFT, published 2020).

The chains are these.
B1: SGMI-2 (SGCI-based MASP inhibitor 2) (designed binder)
chain: GSGEVTCEPGTTFKDKCNTCRCGSDGKSAVCTKLWCNQ
notes: Comparator from WO 2012/007777
B2: protein according to SEQ ID NO: 11 (TFPI-D2 variant with the inhibitor loop FCRAVKR) (designed binder)
chain: KPDFCFLEEDPGFCRAVKRRYFYNNQTKQCERFKYGGCLGNMNNFETLEECKNICEDG
modifications: ends and bridges not checked; cysteine pairing not given here
notes: Made in E. coli as a His6-S100A4 fusion and freed by TEV protease
B3: protein according to SEQ ID NO: 17 (TFPI-D2 variant with the inhibitor loop VCRAVKR) (designed binder)
chain: B2 chain with F13V
modifications: ends and bridges not checked; cysteine pairing not given here
notes: Made as m1
B4: protein according to SEQ ID NO: 14 (TFPI-D2 variant with the inhibitor loop PCRAVKR) (designed binder)
chain: B2 chain with F13P
modifications: ends and bridges not checked; cysteine pairing not given here
notes: Made as m1
B5: rat MASP-2 catalytic fragment CCP1-CCP2-SP (enzyme)
chain: MTQPCPDPTAPPNGHISPVQATYVLKDSFSVFCKTGFELLQGSVPLKSFTAVCQKDGSWDRPIPECSIIDCGPPDDLPNGHVDYITGPEVTTYKAVIQYSCEETFYTMSSNGKYVCEADGFWTSSKGEKSLPVCKPVCGLSTHTSGGRIIGGQPAKPGDFPWQVLLLGETTAAGALIHDDWVLTAAHAVYGKTEAMSSLDIRMGILKRLSPHYTQAWPEAVFIHEGYTHGAGFDNDIALIKLKNKVTINRNIMPICLPRKEAASLMKTDFVGTVAGWGLTQKGFLARNLMFVDIPIVDHQKCATAYTKQPYPGAKVTVNMLCAGLDAGGKDSCRGDSGGALVFLDNETQRWFVGGIVSWGSINCGGSEQYGVYTKVTNYIPWIENIINNF
notes: Mw 42309 Da; also called rat MASP-2cf; MASP2cf

Assay [1] deals with T1, human MASP-2 enzyme as present in normal human serum (human, UniProt O00187 16-686). Briefly: cell-based or functional assay.
T1 sequence (O00187 16-686 limits assumed): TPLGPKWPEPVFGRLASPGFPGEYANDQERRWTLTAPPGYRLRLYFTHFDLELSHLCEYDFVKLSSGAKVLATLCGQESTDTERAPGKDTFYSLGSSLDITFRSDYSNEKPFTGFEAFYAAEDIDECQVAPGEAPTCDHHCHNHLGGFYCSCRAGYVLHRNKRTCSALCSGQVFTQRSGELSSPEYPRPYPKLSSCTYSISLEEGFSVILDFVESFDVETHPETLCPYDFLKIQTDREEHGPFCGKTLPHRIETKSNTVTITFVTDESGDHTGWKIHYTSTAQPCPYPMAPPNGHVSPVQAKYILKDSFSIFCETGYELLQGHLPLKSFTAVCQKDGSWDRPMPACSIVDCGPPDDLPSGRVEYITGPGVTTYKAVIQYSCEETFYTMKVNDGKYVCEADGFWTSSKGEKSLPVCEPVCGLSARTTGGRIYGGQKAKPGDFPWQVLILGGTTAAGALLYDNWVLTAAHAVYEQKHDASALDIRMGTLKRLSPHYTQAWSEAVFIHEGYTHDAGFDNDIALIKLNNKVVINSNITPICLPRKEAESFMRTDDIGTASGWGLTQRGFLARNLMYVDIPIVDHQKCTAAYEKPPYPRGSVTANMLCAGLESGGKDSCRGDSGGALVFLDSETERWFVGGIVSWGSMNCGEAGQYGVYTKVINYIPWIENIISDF
The target of assay [2] is rat MASP-2 as present in rat serum (rat, UniProt Q9JJS8 20-685). Put plainly: cell-based or functional assay.
In assay [3] the target is T2, human MASP-1 catalytic fragment CCP1-CCP2-SP (human, UniProt P48740 298-699, limits assumed).
T2 construct: domain: CCP1-CCP2-SP
T2 sequence (looked up): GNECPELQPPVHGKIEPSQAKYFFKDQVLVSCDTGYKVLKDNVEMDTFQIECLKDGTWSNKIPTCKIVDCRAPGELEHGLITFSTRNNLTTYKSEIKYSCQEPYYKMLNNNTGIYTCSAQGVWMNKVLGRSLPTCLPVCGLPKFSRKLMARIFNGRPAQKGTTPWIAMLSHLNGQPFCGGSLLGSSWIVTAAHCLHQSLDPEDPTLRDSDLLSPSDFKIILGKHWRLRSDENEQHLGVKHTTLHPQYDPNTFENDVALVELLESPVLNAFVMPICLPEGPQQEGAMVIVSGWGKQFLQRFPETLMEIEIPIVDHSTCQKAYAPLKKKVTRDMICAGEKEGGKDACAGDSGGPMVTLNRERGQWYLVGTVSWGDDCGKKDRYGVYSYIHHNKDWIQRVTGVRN
Put plainly: enzyme inhibition, Z-L-Lys-SBzl/DTNB, catalytic fragment. How it is done:
(§1) For determining the KI of the inhibitors on MASP enzymes we used catalytic enzyme fragments containing the three C-terminal domains: CCP1-CCP2-SP. The synthetic substrate used in the measurements was Z-L-Lys-SBzl hydrochloride (Sigma, C3647), from which a 10 mM stock solution was prepared. The reactions were performed in a volume of 0.2 ml at room temperature in a buffer consisting of 20 mM HEPES; 145 mM NaCl; 5 mM CaCl₂; 0.05% Triton-X100. The substrate cleaved by the enzyme entered into a reaction with the 5,5′-Dithiobis(2-nitrobenzoic acid) (DTNB, Ellman's reagent, Sigma—D8130) auxiliary substrate present in the solution in 2-fold excess to Z-L-Lys-SBzl. The release of the chromophore group created in this way was monitored via the change of absorbance at 410 nm using a BioTek Synergy H4 multimode microplate reader.
(§2) A dilution sequence was prepared from the individual inhibitors, the enzyme was added to it, and it was incubated for 2 hours at room temperature. The samples were transferred on a 96-well microtiter plate (Nunc 269620). The reactions were started by adding the mixture of the substrate and the auxiliary substrate to the samples. The concentration of the substrate and the length of the measuring period were chosen so that under the given conditions the enzyme should consume less than 10% of the substrate. In this case we used 250 μM Z-L-Lys-SBzl and 500 μM DTNB in the reactions. In the course of measuring, a method developed for the characterisation of tight-binding inhibitors was used (Empie, 1982). The concentration of the product was measured as a function of reaction time. The slope of the straight line determined for the initial phase of the reaction was normalised with the slope obtained for the uninhibited enzyme reaction, and this value was multiplied with the total enzyme concentration. As a result of this we obtained the free enzyme concentration, which was plotted as a function of the total inhibitor concentration and the Ki value was determined according to the following equation: […]

Assay [4] addresses bovine trypsin (Sigma-T1426) (bovine, UniProt P00760 24-246). Put plainly: fluorometric residual activity, Z-Gly-Pro-Arg-AMC, tight-binding fit. How it is done:
The KI values of the inhibitors on bovine trypsin were also determined. In these experiments, we used bovine trypsin (Sigma—T1426). The concentration of trypsin was determined by fluorescent active-site titration based on Jameson 1973. The measurements were done in 200 μL final assay volume of 50 mM Tris, 10 mM CaCl2, 0.005% Triton X-100 pH 8.0 buffer on 96-well black microtiter plates (Thermo Scientific Sterilin—611F96BK) using a BioTek Synergy H4 multimode microplate reader.
Constant predefined concentrations of the enzymes were mixed with serial dilutions of the inhibitors and co-incubated at room temperature until reaching equilibrium. The incubation times were 5 h in the case of the protein according to SEQ ID NO: 11, 8 h in the case of TFPI-D2 and the protein according to SEQ ID NO: 17 and 24 h in the case of the protein according to SEQ ID NO: 14. Then, 10 μM (final concentration) of Z-Gly-Pro-Arg-AMC substrate was added to the samples. The concentration of the free enzyme was determined through measuring the residual enzyme activity in a fluorometric kinetic assay at 380 nm excitation wavelength and 460 nm emission wavelength in two parallel experiments. Analyses of the data were done as described above.

For assay [5], the target named is T3, human MASP-2 catalytic fragment CCP1-CCP2-SP (human, UniProt O00187 287-686, limits assumed).
T3 construct: domain: CCP1-CCP2-SP; also called human MASP-2cf; human MASP2cf
T3 sequence (O00187 287-686 limits assumed): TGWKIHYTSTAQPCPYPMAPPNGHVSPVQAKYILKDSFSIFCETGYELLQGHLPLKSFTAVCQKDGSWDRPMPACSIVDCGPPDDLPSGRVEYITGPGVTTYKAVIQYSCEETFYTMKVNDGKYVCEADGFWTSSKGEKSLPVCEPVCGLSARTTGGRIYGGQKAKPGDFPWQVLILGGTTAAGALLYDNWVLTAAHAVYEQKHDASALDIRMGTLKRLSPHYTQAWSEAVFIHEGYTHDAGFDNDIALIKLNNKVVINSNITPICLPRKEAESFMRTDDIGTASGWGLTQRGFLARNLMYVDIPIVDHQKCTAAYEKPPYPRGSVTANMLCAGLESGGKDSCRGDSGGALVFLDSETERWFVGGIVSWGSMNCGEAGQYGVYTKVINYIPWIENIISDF
Briefly: enzyme inhibition, Z-L-Lys-SBzl/DTNB, tight-binding fit, catalytic fragment CCP1-CCP2-SP. How it is done: as §1, §2
(§3) where E is the free (uninhibited) enzyme concentration, and E₀ is the total enzyme concentration. The stock concentration of the inhibitors was determined by titration with bovine trypsin of known concentration. The results were calculated as the average of parallel measurements.

Assay [6] has as its target B5. The description is as above. How it is done:
as §1, §2, §3

In assay [7] the target is T3, human MASP-2 catalytic fragment …. Briefly: ratio of Ki values, enzyme inhibition. How it is done:
as §1, §2

For assay [8], the target named is T4, human MASP-3 catalytic fragment CCP1-CCP2-SP (human, UniProt P48740-2 298-728, limits assumed).
T4 construct: domain: CCP1-CCP2-SP
T4 sequence (looked up): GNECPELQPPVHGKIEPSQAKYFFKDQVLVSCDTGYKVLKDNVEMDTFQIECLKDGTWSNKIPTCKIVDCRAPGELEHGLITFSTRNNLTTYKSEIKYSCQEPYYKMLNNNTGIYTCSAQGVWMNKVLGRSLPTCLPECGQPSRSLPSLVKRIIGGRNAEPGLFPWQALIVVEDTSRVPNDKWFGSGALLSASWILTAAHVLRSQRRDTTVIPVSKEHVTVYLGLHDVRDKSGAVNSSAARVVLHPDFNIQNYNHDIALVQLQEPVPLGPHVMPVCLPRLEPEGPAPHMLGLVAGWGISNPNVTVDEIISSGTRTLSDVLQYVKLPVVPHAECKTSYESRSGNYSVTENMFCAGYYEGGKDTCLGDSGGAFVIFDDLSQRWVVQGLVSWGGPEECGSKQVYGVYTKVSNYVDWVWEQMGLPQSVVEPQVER
Briefly: enzyme inhibition, Z-L-Lys-SBzl/DTNB, catalytic fragment. How it is done:
as §1, §2

Assay [9] has as its target T1, human MASP-2 enzyme as present in …. Briefly: cell-based or functional assay. The source holds these as a separate data set.
Assay [10] has as its target B5. Put plainly: ratio of Ki values, enzyme inhibition. How it is done:
as §1, §2

The target of assay [11] is T4, human MASP-3 catalytic fragment …. Put plainly: enzyme inhibition, Z-L-Lys-SBzl/DTNB, catalytic fragment; approximation based on a single measurement. How it is done: as §1
A dilution sequence was prepared from the individual inhibitors, the enzyme was added to it, and it was incubated for 2 hours at room temperature. The samples were transferred on a 96-well microtiter plate (Nunc 269620). […] The concentration of the product was measured as a function of reaction time. The slope of the straight line determined for the initial phase of the reaction was normalised with the slope obtained for the uninhibited enzyme reaction, and this value was multiplied with the total enzyme concentration. […]

Assay [12] concerns the target T5, TFPI-D2, second Kunitz domain (residues 121-178) of human Tissue Factor Pathway Inhibitor-1 (human, UniProt P10646 121-178).
T5 construct: Recombinant, made as m1; also called parental TFPI-D2; human TFPI-D2
T5 sequence: B2 chain with F13I, A16G, V17Y, K18I, R19T
Briefly: enzyme inhibition.

The term Ki denotes a measure of affinity in units of concentration, obtained from inhibition or displacement.

Numbering of substitutions follows the chain as printed. Where no end group is shown, it is not given here.

Chain of bovine trypsin (Sigma-T1426) (P00760 24-246): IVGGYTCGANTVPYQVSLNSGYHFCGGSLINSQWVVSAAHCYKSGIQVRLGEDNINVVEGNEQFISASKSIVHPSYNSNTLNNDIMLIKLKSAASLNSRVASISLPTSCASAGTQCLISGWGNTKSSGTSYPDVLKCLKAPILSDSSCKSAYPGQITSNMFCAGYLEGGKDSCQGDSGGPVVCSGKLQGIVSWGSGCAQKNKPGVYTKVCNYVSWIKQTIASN

As to B1, the “IC50 (nM), lectin pathway activity in diluted human serum (WIELISA, C5b-9)” value (“IC50 (nM), lectin pathway activity” for short) in assay [1] came to 174 nM. Also, in assay [2], the “IC50 (nM), C3 deposition, lectin pathway in diluted rat serum on mannan” value is 2240 nM; the “IC50 (nM), C4 deposition, lectin pathway in diluted rat serum on mannan” value came out at 457 nM; the “IC50 (nM), C5b-9 deposition, lectin pathway in diluted rat serum on mannan” value was 4000 nM. Also, in assay [3], the binding result was “no binding”. Further, the Ki in assay [4] was 100 nM. The Ki in assay [5] was 8.1 nM. The Ki in assay [6] was determined as 22.7 nM.
Consider B2, for which the “IC50 (nM), lectin pathway activity” value in assay [1] came to 35 nM. Besides, in [7], the “fold more potent than SGMI-2” value is 3 fold. Also, the binding result in assay [3] and in assay [8] was “no binding” each time. In addition, the Ki in assay [4] was determined as 0.094 nM; in assay [5] it was 2 nM; in [6] it was 640 nM.
As for B3, in assay [9], the “fold of the lectin pathway IC50 against SGMI-2” value is 2 fold. In addition, the “IC50 (nM), lectin pathway activity” value in assay [1] came to 380 nM. For the same molecule, in [7], the “fold reduction of binding affinity against the protein of SEQ ID NO: 11” value stood at 18 fold. Moreover, the “fold higher binding affinity than human TFPI-D2” value in assay [10] was 25 fold. For the same molecule, the “fold more potent than SGMI-2” value in assay [10] was approximately 3 fold. Besides, the binding result in assay [3] and in assay [8] was “no binding” in each case. Besides, the results for the inhibitory constant (Ki) in assay [4], in [5] and in assay [6] were 0.017 nM, 36.7 nM and 7.5 nM, respectively.
B4: in assay [1], the “IC50 (nM), lectin pathway activity” value came out at 90 nM. For the same molecule, in assay [2], the “IC50 (nM), C3 deposition, lectin pathway in diluted rat serum on mannan” value turned out to be 869 nM; the “IC50 (nM), C4 deposition, lectin pathway in diluted rat serum on mannan” value was found to be 108 nM; the “IC50 (nM), C5b-9 deposition, lectin pathway in diluted rat serum on mannan” value turned out to be 940 nM. The “fold reduction of binding affinity against the protein of SEQ ID NO: 11” value in assay [7] was found to be 4 fold. In assay [10], the “fold higher binding affinity than human TFPI-D2” value stood at 25 fold and the “fold more potent than SGMI-2” value is approximately 3 fold. The binding result in [3] was “no binding”. Also, the Ki in [4] is 0.004 nM. For the same molecule, in assay [5], the Ki amounted to 7.9 nM. Also, the Ki in assay [6] amounted to 7.2 nM. In addition, the Ki in assay [11] is approximately 30000 nM.
For B5, the binding result in assay [12] is reported as “binds”.
